From publication PMC11903679

Key:
HLA-B*08:01/hβ2m (human) [1] = experiment: in vitro refolding + SEC
HLA-A*02:01/hβ2m (human) [2] = experiment: in vitro refolding + SEC
HLA-B*08:01/hβ2m (human) [3] = biological target: HLA-B*08:01/hβ2m (human)
HLA-A*02:01/hβ2m (human) [4] = biological target: HLA-A*02:01/hβ2m (human)
HLA-E*01:03/hβ2m (human) [5] = experiment: in vitro refolding + SEC
HLA-E*01:03/hβ2m (human) [6] = biological target: HLA-E*01:03/hβ2m (human)
HLA-E*01:03/hβ2m (human) [7] = biological target: HLA-E*01:03/hβ2m (human); remark: listed apart in the source

| Substance | apparent refolding yield (%) (HLA-B*08:01/hβ2m (human) [1]) | apparent refolding yield (%) (HLA-A*02:01/hβ2m (human) [2]) | nanoDSF melting temperature (Tm) of the refolded peptide/HLA/hβ2m complex (HLA-B*08:01/hβ2m (human) [3]) [°C] | nanoDSF melting temperature (Tm) of the refolded peptide/HLA/hβ2m complex (HLA-A*02:01/hβ2m (human) [4]) [°C] | apparent refolding yield (%) (HLA-E*01:03/hβ2m (human) [5]) | nanoDSF melting temperature (Tm) of the refolded peptide/HLA/hβ2m complex (HLA-E*01:03/hβ2m (human) [6]) [°C] | nanoDSF melting temperature of a minor population of the refolded complex (HLA-E*01:03/hβ2m (human) [7]) [°C] |
| --- | --- | --- | --- | --- | --- | --- | --- |
| LSA3 78–87 (…) (peptide) | 14.7 | 13.5 | 56.3 | 52.5 | – | – | – |
| LSA3 1229–1238 (…) (peptide) | 47.6 | 24.6 | 60.5 | 58.4 | 38.1 | 61 | – |
| MSP1 511–520 (…) (peptide) | 44.4 | 19 | – | 51.6 | – | – | – |
| MSP1 643–652 (…) (peptide) | 32.6 | – | 52.9 | – | 8 | 38.4 | 63 |
| MSP1 823–832 (…) (peptide) | 12.5 | – | 52.6 | 63.2 | – | – | – |
| MSP1 880–889 (…) (peptide) | 63.3 | – | 51.6 | 53.6 | – | – | – |
| SSFP 93–102 (…) (peptide) | 51.1 | 27.1 | 56.3 | 52.5 | – | – | – |
